Assay results published in the supplement of paper PMC10567573.

B1: MNAT1 (parent)
chain: SLREYNDFLEEVEEIVFNLTNNVD

Variants of: B1
Assay: protein stability index of a GFP-peptide fusion (GPS, HEK-293T) (PSI 1-6); higher = more stable
Details: c terminus: a fixed tail appended
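Note: lentivirally expressed fusions sorted by FACS into six bins by GFP to DsRed ratio, PSI derived from sequencing read proportions per bin multiplied by bin number.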

Variant	protein stability index
SLREYNDFLEEVEEIVFALTNNVD	1.84
SLREYNDFLEEVEEIVFCLTNNVD	1.71
SLREYNDFLEEVEEIVFDLTNNVD	2.36
SLREYNDFLEEVEEIVFELTNNVD	2.16
SLREYNDFLEEVEEIVFFLTNNVD	2.22
SLREYNDFLEEVEEIVFGLTNNVD	2.38
SLREYNDFLEEVEEIVFHLTNNVD	1.85
SLREYNDFLEEVEEIVFKLTNNVD	2.01
SLREYNDFLEEVEEIVFMLTNNVD	1.84
SLREYNDFLEEVEEIVFPLTNNVD	2.71
SLREYNDFLEEVEEIVFQLTNNVD	1.73
SLREYNDFLEEVEEIVFRLTNNVD	1.6
SLREYNDFLEEVEEIVFSLTNNVD	2.16
SLREYNDFLEEVEEIVFTLTNNVD	2.55
SLREYNDFLEEVEEIVFVLTNNVD	2.32
SLREYNDFLEEVEEIVFWLTNNVD	2.52
SLREYNDFLEEVEEIVFYLTNNVD	1.4
SLREYNDFLEEVEEIVFNATNNVD	3.2
SLREYNDFLEEVEEIVFNCTNNVD	3.34
SLREYNDFLEEVEEIVFNDTNNVD	4.43
SLREYNDFLEEVEEIVFNETNNVD	4.55
SLREYNDFLEEVEEIVFNFTNNVD	2.24
SLREYNDFLEEVEEIVFNGTNNVD	4.19
SLREYNDFLEEVEEIVFNHTNNVD	4.43

Variant	protein stability index
SLREYNDFLEEVEEIVFNITNNVD	1.84
SLREYNDFLEEVEEIVFNKTNNVD	4.26
SLREYNDFLEEVEEIVFNMTNNVD	2.89
SLREYNDFLEEVEEIVFNNTNNVD	3.76
SLREYNDFLEEVEEIVFNPTNNVD	4.05
SLREYNDFLEEVEEIVFNQTNNVD	4.07
SLREYNDFLEEVEEIVFNRTNNVD	3.34
SLREYNDFLEEVEEIVFNSTNNVD	4.18
SLREYNDFLEEVEEIVFNTTNNVD	3.6
SLREYNDFLEEVEEIVFNVTNNVD	2.97
SLREYNDFLEEVEEIVFNWTNNVD	1.63
SLREYNDFLEEVEEIVFNYTNNVD	3.06
SLREYNDFLEEVEEIVFNLANNVD	1.07
SLREYNDFLEEVEEIVFNLCNNVD	2.31
SLREYNDFLEEVEEIVFNLDNNVD	3.91
SLREYNDFLEEVEEIVFNLENNVD	2.51
SLREYNDFLEEVEEIVFNLFNNVD	1.5
SLREYNDFLEEVEEIVFNLGNNVD	2.31
SLREYNDFLEEVEEIVFNLHNNVD	2.25
SLREYNDFLEEVEEIVFNLINNVD	1.41
SLREYNDFLEEVEEIVFNLKNNVD	2.41
SLREYNDFLEEVEEIVFNLLNNVD	2.75
SLREYNDFLEEVEEIVFNLMNNVD	1.86
SLREYNDFLEEVEEIVFNLNNNVD	2.56

Variant	protein stability index
SLREYNDFLEEVEEIVFNLPNNVD	3.19
SLREYNDFLEEVEEIVFNLQNNVD	2.37
SLREYNDFLEEVEEIVFNLRNNVD	2.46
SLREYNDFLEEVEEIVFNLSNNVD	3.05
SLREYNDFLEEVEEIVFNLVNNVD	1.33
SLREYNDFLEEVEEIVFNLWNNVD	2
SLREYNDFLEEVEEIVFNLYNNVD	1.5
SLREYNDFLEEVEEIVFNLTANVD	1.42
SLREYNDFLEEVEEIVFNLTCNVD	1.48
SLREYNDFLEEVEEIVFNLTDNVD	3
SLREYNDFLEEVEEIVFNLTENVD	2.51
SLREYNDFLEEVEEIVFNLTGNVD	2.58
SLREYNDFLEEVEEIVFNLTHNVD	1.76
SLREYNDFLEEVEEIVFNLTINVD	1.73
SLREYNDFLEEVEEIVFNLTKNVD	1.45
SLREYNDFLEEVEEIVFNLTLNVD	1.81
SLREYNDFLEEVEEIVFNLTMNVD	2.48
SLREYNDFLEEVEEIVFNLTPNVD	2.19
SLREYNDFLEEVEEIVFNLTQNVD	3.08
SLREYNDFLEEVEEIVFNLTRNVD	1.95
SLREYNDFLEEVEEIVFNLTSNVD	1.68
SLREYNDFLEEVEEIVFNLTTNVD	2.42
SLREYNDFLEEVEEIVFNLTYNVD	2.4
SLREYNDFLEEVEEIVFNLTNAVD	2.69

Variant	protein stability index
SLREYNDFLEEVEEIVFNLTNCVD	1.66
SLREYNDFLEEVEEIVFNLTNDVD	1.98
SLREYNDFLEEVEEIVFNLTNEVD	2.38
SLREYNDFLEEVEEIVFNLTNFVD	2.47
SLREYNDFLEEVEEIVFNLTNGVD	2.96
SLREYNDFLEEVEEIVFNLTNHVD	2.15
SLREYNDFLEEVEEIVFNLTNIVD	2.25
SLREYNDFLEEVEEIVFNLTNKVD	2.64
SLREYNDFLEEVEEIVFNLTNLVD	1.16
SLREYNDFLEEVEEIVFNLTNMVD	1.44
SLREYNDFLEEVEEIVFNLTNPVD	2.25
SLREYNDFLEEVEEIVFNLTNQVD	1.84
SLREYNDFLEEVEEIVFNLTNRVD	2.09
SLREYNDFLEEVEEIVFNLTNSVD	1.78
SLREYNDFLEEVEEIVFNLTNTVD	2.06
SLREYNDFLEEVEEIVFNLTNVVD	1.9
SLREYNDFLEEVEEIVFNLTNWVD	2.97
SLREYNDFLEEVEEIVFNLTNYVD	1.38
SLREYNDFLEEVEEIVFNLTNNAD	2.69
SLREYNDFLEEVEEIVFNLTNNCD	2.47
SLREYNDFLEEVEEIVFNLTNNDD	2.92
SLREYNDFLEEVEEIVFNLTNNED	2.82
